Results on two substances are retold here after US11872261B2, “Lipoprotein targeting protease inhibitors and uses” (The United States of America, as represented by the …, priority 2016, dated 2024).

Data set [1] addresses T1, porcine pancreatic elastase (PPE) (Sus scrofa, UniProt P00772).
T1 construct: incubated with elastase (porcine pancreas, Sigma Aldrich, 500 nM) for 4 hours; purchased Sigma Aldrich; host or cells: porcine pancreas
As to the kind of experiment: Elastase inhibition of the cell treatments in a cell-free assay. To be noted: same treatments as for J774 cells. The class given is biochemical. How it is done:
FIG. 9A-9E. Alpha-1-antitrypsin enriched HDL prevents elastase induced TNF-α production by macrophages. (FIG. 9A) J774 mouse macrophages treated with increasing amounts of porcine pancreatic elastase (PPE) or heat inactivated elastase for 4 hours, TNF-α in the culture media was measured by ELISA. (FIG. 9B) J774 cells pretreated with PBS, isolated human HDL (nHDL), the same HDL enriched with alpha-1-antitrypsin (A1AT nHDL), or lipid free A1AT for 1 hour prior to PPE addition. (FIG. 9C) The ability of each of the cell treatments to inhibit elastase activity was measured in a cell-free assay. (FIG. 9D) Treatments were pre-incubated with PPE prior to addition to cells and TNF-α was measured in the culture media after 4 hours. (FIG. 9E) J774 cells were pre-incubated with each treatment for 1 hour; cells were then washed twice with PBS and placed in fresh media containing PPE and TNF-α was measured in the culture media after 4 hours. All experiments were repeated at least 3 times and were done in triplicates. Treatments were compared using one-way ANOVA and Tukey's multiple comparisons test, p<0.05 was considered significant. The letters above each treatment indicate statistical significance; within each graph, bars bearing different letters were statistically different from each other. […]

In data set [2] the test system is J774 mouse macrophages. The experiment in a line: Elastase induced TNF-α production by J774 macrophages. The class given is cell-based. On the procedure:
FIG. 9A-9E. Alpha-1-antitrypsin enriched HDL prevents elastase induced TNF-α production by macrophages. (FIG. 9A) J774 mouse macrophages treated with increasing amounts of porcine pancreatic elastase (PPE) or heat inactivated elastase for 4 hours, TNF-α in the culture media was measured by ELISA. (FIG. 9B) J774 cells pretreated with PBS, isolated human HDL (nHDL), the same HDL enriched with alpha-1-antitrypsin (A1AT nHDL), or lipid free A1AT for 1 hour prior to PPE addition. (FIG. 9C) The ability of each of the cell treatments to inhibit elastase activity was measured in a cell-free assay. (FIG. 9D) Treatments were pre-incubated with PPE prior to addition to cells and TNF-α was measured in the culture media after 4 hours. (FIG. 9E) J774 cells were pre-incubated with each treatment for 1 hour; cells were then washed twice with PBS and placed in fresh media containing PPE and TNF-α was measured in the culture media after 4 hours. All experiments were repeated at least 3 times and were done in triplicates. Treatments were compared using one-way ANOVA and Tukey's multiple comparisons test, p<0.05 was considered significant. The letters above each treatment indicate statistical significance; within each graph, bars bearing different letters were statistically different from each other.
J774 mouse macrophages were used to examine the potential functional role of alpha-1-antitrypsin enriched HDL in inflammation. For these experiments, cells were plated in 12-well culture plates at a density of 1×10^5 cells/well two days prior to the experiment. Cells were washed twice with PBS and placed in serum-free media for 1 hour prior to addition of treatment. Treatments (PBS, nHDL, A1AT-HDL or A1AT) were added to serum-free culture media: HDL protein was matched for nHDL and A1AT-nHDL at a final concentration of 200 μg/mL. A1AT concentration was matched between free A1AT and A1AT-nHDL at a final concentration of 2 μM. Cells were then incubated with elastase (porcine pancreas, Sigma Aldrich, 500 nM) for 4 hours and media was collected and centrifuged at 3,000×g for 5 min to pellet any loose cells or debris and supernatant was transferred to fresh tubes and stored at −80° C. until further analysis. Elisa assays for mouse TNF-α (BioLegend) were performed on cell culture media.
Next, J774 cells were pre-incubated with PBS, native HDL (nHDL), A1AT enriched nHDL, or lipid-free A1AT for 1 hour prior to the addition of elastase to the culture media to allow for […] of A1AT.

Data set [3] addresses T2, reconstituted HDL (rHDL) (Homo sapiens, UniProt P02647).
T2 construct: Reconstituted HDL was prepared by cholate dialysis method, using human purified apolipoprotein A-I; from tissue
As to the kind of experiment: Binding of A1AT to reconstituted HDL, size exclusion chromatography. The note with it: gel filtration profile, HDL containing apoA-I and phospholipids. How it is done:
FIG. 7A-7B. Alpha-1-antitrypsin has reduced anti-elastase activity when bound to reconstituted HDL. Reconstituted HDL (rHDL) were prepared from apoA-I and phospholipids by cholate dialysis and then co-incubated with alpha-1-antitrypsin (A1AT) to generate A1AT enriched rHDL. (FIG. 7A) Size exclusion chromatography on tandem Superdex 200 columns was used to isolate HDL bound A1AT from lipid free protein. (FIG. 7B) The ability of lipid free and rHDL bound A1AT to inhibit neutrophil elastase (NE) activity was measured by fluorometric assay.
Reconstituted HDL was prepared by cholate dialysis method, using human purified apolipoprotein A-I and 1-palmitoyl-2-oleoyl-sn-glycero-3-phosphocholine (Avanti) as previously described (Matz & Jonas, J Biol Chem 257: 4535-4540, 1982). Native human HDL was isolated from plasma by sequential density gradient ultracentrifugation (Chapman et al., J Lipid Res 22: 339-358, 1981). Reconstituted or native HDL was co-incubated with alpha-1-antitrypsin protein (Human, Sigma Aldrich) overnight at 37° C. Unbound A1AT was removed by filtration, using Amicon Ultra 100 kDa centrifugal filter units (Millipore). Elastase activity assays were performed with the EnzChek® elastase assay kit (Life Technologies). […]
On the technique in general: Size exclusion chromatography separates by hydrodynamic size, large species first.

Data set [4] has as its system HDL. The experiment in a line: E-AAPV coincubated with purified human HDL, HDL repurified and tested for elastase inhibitor activity. The class given is binding. To be noted: coincubated 30 minutes at 37° C., HDL repurified by size-exclusion chromatography. How it is done:
Isolated Human HDL was co-incubated with the E-AAPV (SEQ ID NO: 5) peptide for 30 minutes at 37° C. and then HDL was reisolated by FPLC to remove unbound E-AAPV (SEQ ID NO: 5). The HDL was then tested for elastase inhibition activity and compared to control HDL which was coincubated with PBS (no peptide) and repurified. Sampes were matched based on phospholipid content.
E-AAPV peptide binds HDL and confers elastase inhibitor activity. The reaction product (E-AAPV; SEQ ID NO: 5) was coincubated with purified human HDL for 30 minutes at 37° C. followed by repurification of HDL by size-exclusion chromatography to remove unbound E-AAPV (SEQ ID NO: 5) peptide. The repurified HDL was then tested for elastase inhibitor activity using the assay described above.
E-AAPV (SEQ ID NO: 5)-loaded HDL was compared to the same HDL that was coincubated with buffer only (No peptide). The HDL and HDL+E-AAPV (SEQ ID NO: 5) were normalized based on phospholipid content, determined by colorimetric assay, prior to measurement of elastase activity.

Data set [5] concerns the target T3, elastase (Sus scrofa, UniProt P00772).
T3 construct: purchased Molecular Probes E-12056
The experiment in a line: EnzChek elastase inhibitor assay (Example 3). The data set is classed as biochemical. To be noted: EnzChek Elastase Assay Kit. An excerpt:
Elastase Inhibitor Assay.

No end group written: not given here. PEG2000 = poly(ethylene) glycol, 2000; VitE = vitamin E (alpha tocopherol)

T3 sequence (P00772 27-266): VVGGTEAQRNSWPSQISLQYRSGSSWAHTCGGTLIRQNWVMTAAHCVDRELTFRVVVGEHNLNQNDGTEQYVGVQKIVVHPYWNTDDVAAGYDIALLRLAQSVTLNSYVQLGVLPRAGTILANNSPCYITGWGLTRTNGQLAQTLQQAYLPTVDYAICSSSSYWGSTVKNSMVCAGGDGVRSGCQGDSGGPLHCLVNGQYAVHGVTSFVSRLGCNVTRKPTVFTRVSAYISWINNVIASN
T2 sequence (P02647 25-267): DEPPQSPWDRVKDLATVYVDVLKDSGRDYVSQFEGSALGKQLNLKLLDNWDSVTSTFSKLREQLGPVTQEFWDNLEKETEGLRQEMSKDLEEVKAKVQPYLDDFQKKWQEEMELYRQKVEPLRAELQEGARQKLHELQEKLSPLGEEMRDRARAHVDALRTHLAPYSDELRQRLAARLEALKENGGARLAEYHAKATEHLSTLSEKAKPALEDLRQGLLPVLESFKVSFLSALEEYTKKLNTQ
T1 sequence (P00772 27-266): as the sequence (P00772 27-266) above

Consider “A1AT: alpha-1-antitrypsin protein (Human, Sigma Aldrich), serine protease inhibitor”, for which the “inhibition of elastase activity in a cell-free system” value in data set [1] is reported as “significant anti-elastase activity”. In addition, the “proteolytic degradation of A1AT in cell culture media, western blot” value in data set [2] (J774 cell culture media) is “no evidence of proteolytic degradation”. In data set [2] (pre-incubated with elastase prior to addition to the cells), the “inhibition of elastase induced TNF-α production, treatment pre-incubated with elastase” value is on record as “readily able to inhibit elastase induced TNF-α production”. For the same substance, the “protection against elastase induced TNF-α production” value in data set [2] (pretreated 1 hour prior to elastase, A1AT 2 μM) is recorded as “no significant protection”. In addition, in data set [2] (pretreated 1 hour, cells washed, fresh media containing elastase), the “protection against elastase induced TNF-α production after removal of treatment” value is “no effect”. In data set [3], the “association of A1AT with discoidal reconstituted HDL” value is given as “a significant fraction of A1AT associates with HDL”.
Regarding “VitE-PEG-Ala-Ala-Pro-Val ({VitE-PEG2000}-AAPV) [E-AAPV, vitamin E linked to the A1AT linear peptide AAPV via a PEG2000 linker]”, the “binding to HDL” value in data set [4] was “binds HDL”. Moreover, the elastase inhibitor activity result is “does not affect elastase inhibition activity” in data set [5] and “retains elastase inhibitor activity” in data set [5] (listed as VitE-PEG-AAPV).
